Assay results as given in the supplement of paper PMC9112550, “Optimization of the antimicrobial peptide Bac7 by deep mutational scanning” (BMC Biology, 2022).

test system: Escherichia coli TOP10; experiment: shrunken log2 fold change of peptide-encoding DNA abundance (4.5 h post-induction vs induction); higher = less antimicrobial activity (less host growth inhibition); conditions: time post-induction: 4.5 h; library: site-saturation at positions 5, 18, 19, 20
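Note: peptides expressed intracellularly from a pBAD plasmid library in pooled LB shake-flask culture, induced with 0.3% L-arabinose, DNA abundance read by NGS, three biological replicates, DESeq2 with apeglm shrinkage.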

RRIRARPPRLPRPRPRPQEMPRP and RRIRDRPPRLPRPRPRPQRHPRP are within 0.2 log units of each other in “shrunken log2 fold change” value: -0.0254 for the first, 0.0682 for the second.

RRIRCRPPRLPRPRPRPIVEPRP and RRIRFRPPRLPRPRPRPYCEPRP are within 0.2 log units of each other in “shrunken log2 fold change” value: -0.151 for the first, -0.0267 for the second.

First: RRIRTRPPRLPRPRPRPHPAPRP
Second: RRIRLRPPRLPRPRPRPGITPRP
The “shrunken log2 fold change” value of the first is higher: 0.201 for the first, -0.322 for the second.

Compared with RRIRYRPPRLPRPRPRPYARPRP, RRIRSRPPRLPRPRPRPFRQPRP is higher in “shrunken log2 fold change” value: -0.0987 for the first, 3.58 for the second.

RRIRVRPPRLPRPRPRPTRNPRP and RRIRIRPPRLPRPRPRPWKWPRP are within 0.2 log units of each other in “shrunken log2 fold change” value: 0.0987 for the first, -0.00992 for the second.

Going from RRIRERPPRLPRPRPRPIHQPRP to RRIRGRPPRLPRPRPRPGGEPRP, the “shrunken log2 fold change” value rises from -1.22 to 1.24.

RRIRIRPPRLPRPRPRPFSNPRP and RRIRNRPPRLPRPRPRPLKHPRP are within 0.2 log units of each other in “shrunken log2 fold change” value: -0.28 for the first, -0.239 for the second.

RRIRMRPPRLPRPRPRPIGVPRP and RRIRARPPRLPRPRPRPYQTPRP are within 0.2 log units of each other in “shrunken log2 fold change” value: 0.0547 for the first, 0.00502 for the second.

Going from RRIRQRPPRLPRPRPRPCGLPRP to RRIRSRPPRLPRPRPRPAGHPRP, the “shrunken log2 fold change” value falls from 0.131 to -0.794.

First: RRIRARPPRLPRPRPRPDPIPRP
Second: RRIRFRPPRLPRPRPRPSAIPRP
The “shrunken log2 fold change” value of the first is lower: -0.521 for the first, -0.304 for the second.

Compared with RRIRGRPPRLPRPRPRPRMEPRP, RRIRKRPPRLPRPRPRPWYLPRP is lower in “shrunken log2 fold change” value: 0.483 for the first, 0.0253 for the second.

Compared with RRIRPRPPRLPRPRPRPRTNPRP, RRIRYRPPRLPRPRPRPMWIPRP is lower in “shrunken log2 fold change” value: -0.0218 for the first, -0.526 for the second.

RRIRARPPRLPRPRPRPWCDPRP and RRIRMRPPRLPRPRPRPQFKPRP are within 0.2 log units of each other in “shrunken log2 fold change” value: 0.00114 for the first, -0.138 for the second.

RRIRLRPPRLPRPRPRPANQPRP and RRIRRRPPRLPRPRPRPQCMPRP are within 0.2 log units of each other in “shrunken log2 fold change” value: 0.137 for the first, -0.0592 for the second.

Compared with RRIRKRPPRLPRPRPRPIPYPRP, RRIRQRPPRLPRPRPRPIDQPRP is higher in “shrunken log2 fold change” value: -0.303 for the first, -0.0135 for the second.

Going from RRIRNRPPRLPRPRPRPHMLPRP to RRIRGRPPRLPRPRPRPCVSPRP, the “shrunken log2 fold change” value rises from -0.954 to 0.265.

Compared with RRIRKRPPRLPRPRPRPMPFPRP, RRIRMRPPRLPRPRPRPNGCPRP is higher in “shrunken log2 fold change” value: 0.0304 for the first, 0.254 for the second.

RRIRIRPPRLPRPRPRPFHKPRP and RRIRKRPPRLPRPRPRPSSIPRP are within 0.2 log units of each other in “shrunken log2 fold change” value: -0.196 for the first, -0.0636 for the second.

First: RRIRHRPPRLPRPRPRPSEPPRP
Second: RRIRFRPPRLPRPRPRPGQRPRP
The “shrunken log2 fold change” value of the first is lower: -0.206 for the first, 0.686 for the second.

Compared with RRIRRRPPRLPRPRPRPTGQPRP, RRIRGRPPRLPRPRPRPEWLPRP is higher in “shrunken log2 fold change” value: 0.675 for the first, 1.5 for the second.

RRIRKRPPRLPRPRPRPPCFPRP and RRIRTRPPRLPRPRPRPRWIPRP are within 0.2 log units of each other in “shrunken log2 fold change” value: 0.211 for the first, 0.0272 for the second.

RRIRCRPPRLPRPRPRPSEFPRP and RRIRARPPRLPRPRPRPIKYPRP are within 0.2 log units of each other in “shrunken log2 fold change” value: -0.287 for the first, -0.38 for the second.

RRIRPRPPRLPRPRPRPHCMPRP and RRIRLRPPRLPRPRPRPMMAPRP are within 0.2 log units of each other in “shrunken log2 fold change” value: -0.195 for the first, -0.137 for the second.

RRIRMRPPRLPRPRPRPSCLPRP and RRIRQRPPRLPRPRPRPDSIPRP are within 0.2 log units of each other in “shrunken log2 fold change” value: -0.0926 for the first, -0.00697 for the second.

First: RRIRERPPRLPRPRPRPPSNPRP
Second: RRIRCRPPRLPRPRPRPKAKPRP
The “shrunken log2 fold change” value of the first is lower: -0.208 for the first, 0.0298 for the second.

First: RRIRWRPPRLPRPRPRPMSFPRP
Second: RRIRLRPPRLPRPRPRPTRTPRP
The “shrunken log2 fold change” value of the first is lower: 0.00806 for the first, 0.243 for the second.

First: RRIRYRPPRLPRPRPRPNYSPRP
Second: RRIRQRPPRLPRPRPRPEIHPRP
The “shrunken log2 fold change” value of the first is lower: -1.39 for the first, -0.0415 for the second.

Compared with RRIRDRPPRLPRPRPRPSITPRP, RRIRARPPRLPRPRPRPCQRPRP is higher in “shrunken log2 fold change” value: -0.197 for the first, 0.246 for the second.

RRIRRRPPRLPRPRPRPHDDPRP and RRIRMRPPRLPRPRPRPVQWPRP are within 0.2 log units of each other in “shrunken log2 fold change” value: 0.341 for the first, 0.155 for the second.

RRIRVRPPRLPRPRPRPTTWPRP and RRIRVRPPRLPRPRPRPHKSPRP are within 0.2 log units of each other in “shrunken log2 fold change” value: -0.0829 for the first, 0.0325 for the second.

First: RRIRVRPPRLPRPRPRPCGGPRP
Second: RRIRYRPPRLPRPRPRPYLAPRP
The “shrunken log2 fold change” value of the first is higher: -0.0341 for the first, -0.682 for the second.

Compared with RRIRWRPPRLPRPRPRPVPGPRP, RRIRQRPPRLPRPRPRPEHHPRP is lower in “shrunken log2 fold change” value: 0.491 for the first, -0.136 for the second.

Going from RRIRTRPPRLPRPRPRPDGIPRP to RRIRIRPPRLPRPRPRPTHTPRP, the “shrunken log2 fold change” value falls from -0.00822 to -0.448.

Compared with RRIRQRPPRLPRPRPRPEQWPRP, RRIRGRPPRLPRPRPRPLCAPRP is higher in “shrunken log2 fold change” value: 0.222 for the first, 1.55 for the second.

RRIRIRPPRLPRPRPRPNKYPRP and RRIRLRPPRLPRPRPRPNYNPRP are within 0.2 log units of each other in “shrunken log2 fold change” value: -0.932 for the first, -0.74 for the second.

First: RRIRLRPPRLPRPRPRPWFMPRP
Second: RRIRTRPPRLPRPRPRPLYTPRP
The “shrunken log2 fold change” value of the first is higher: -0.0837 for the first, -0.322 for the second.

RRIRTRPPRLPRPRPRPMRFPRP and RRIRQRPPRLPRPRPRPAQAPRP are within 0.2 log units of each other in “shrunken log2 fold change” value: 0.00408 for the first, 0.0255 for the second.

With RRIRHRPPRLPRPRPRPDNPPRP the “shrunken log2 fold change” value was -0.0868.
